Data from article PMC6513997.

Biological target: native PRC2 purified from HeLa cells expressing FLAG-tagged EZH2 (not stated | human (endogenous in HeLa)) (UniProt Q15910)
Sequence (Q15910 whole entry, chain 1 of 4): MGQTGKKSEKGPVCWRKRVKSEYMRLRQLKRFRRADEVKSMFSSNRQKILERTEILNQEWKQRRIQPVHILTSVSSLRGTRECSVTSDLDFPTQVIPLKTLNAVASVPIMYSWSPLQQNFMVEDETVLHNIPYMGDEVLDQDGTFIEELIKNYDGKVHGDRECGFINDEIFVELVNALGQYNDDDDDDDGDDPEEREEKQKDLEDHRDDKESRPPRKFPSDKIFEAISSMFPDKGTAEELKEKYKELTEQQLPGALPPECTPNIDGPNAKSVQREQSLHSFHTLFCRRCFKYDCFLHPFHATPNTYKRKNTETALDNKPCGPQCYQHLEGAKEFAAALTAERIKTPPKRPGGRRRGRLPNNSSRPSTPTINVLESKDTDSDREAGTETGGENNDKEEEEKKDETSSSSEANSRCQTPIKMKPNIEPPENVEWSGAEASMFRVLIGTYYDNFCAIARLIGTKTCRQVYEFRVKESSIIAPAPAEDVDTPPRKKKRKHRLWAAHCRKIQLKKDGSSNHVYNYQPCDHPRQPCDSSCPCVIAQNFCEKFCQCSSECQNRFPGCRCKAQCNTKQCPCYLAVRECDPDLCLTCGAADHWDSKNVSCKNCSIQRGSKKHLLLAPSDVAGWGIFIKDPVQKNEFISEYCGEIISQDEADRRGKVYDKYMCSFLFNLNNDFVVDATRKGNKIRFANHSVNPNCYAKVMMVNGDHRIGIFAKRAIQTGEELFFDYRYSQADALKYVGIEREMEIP
Sequence (Q15022 whole entry, chain 2 of 4, further chain): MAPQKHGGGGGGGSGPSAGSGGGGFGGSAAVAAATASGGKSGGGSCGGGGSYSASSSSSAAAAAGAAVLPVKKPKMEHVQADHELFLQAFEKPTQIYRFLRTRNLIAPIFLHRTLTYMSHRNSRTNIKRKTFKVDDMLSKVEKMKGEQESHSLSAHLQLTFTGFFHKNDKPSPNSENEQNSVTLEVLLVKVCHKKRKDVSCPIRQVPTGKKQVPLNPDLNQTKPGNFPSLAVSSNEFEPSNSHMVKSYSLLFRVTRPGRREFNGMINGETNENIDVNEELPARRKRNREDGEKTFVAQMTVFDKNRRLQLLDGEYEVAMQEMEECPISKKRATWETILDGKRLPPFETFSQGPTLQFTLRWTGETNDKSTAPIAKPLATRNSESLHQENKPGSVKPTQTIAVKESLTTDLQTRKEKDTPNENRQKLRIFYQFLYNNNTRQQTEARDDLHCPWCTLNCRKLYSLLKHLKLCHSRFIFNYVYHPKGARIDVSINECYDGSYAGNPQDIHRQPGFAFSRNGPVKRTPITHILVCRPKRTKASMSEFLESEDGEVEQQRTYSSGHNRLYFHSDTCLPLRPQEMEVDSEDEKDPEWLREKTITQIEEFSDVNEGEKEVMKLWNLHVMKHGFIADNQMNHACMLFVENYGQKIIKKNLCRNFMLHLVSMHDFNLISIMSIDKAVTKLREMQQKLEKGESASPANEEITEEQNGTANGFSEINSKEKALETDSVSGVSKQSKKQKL
Sequence (O75530 2-441, chain 3 of 4, further chain): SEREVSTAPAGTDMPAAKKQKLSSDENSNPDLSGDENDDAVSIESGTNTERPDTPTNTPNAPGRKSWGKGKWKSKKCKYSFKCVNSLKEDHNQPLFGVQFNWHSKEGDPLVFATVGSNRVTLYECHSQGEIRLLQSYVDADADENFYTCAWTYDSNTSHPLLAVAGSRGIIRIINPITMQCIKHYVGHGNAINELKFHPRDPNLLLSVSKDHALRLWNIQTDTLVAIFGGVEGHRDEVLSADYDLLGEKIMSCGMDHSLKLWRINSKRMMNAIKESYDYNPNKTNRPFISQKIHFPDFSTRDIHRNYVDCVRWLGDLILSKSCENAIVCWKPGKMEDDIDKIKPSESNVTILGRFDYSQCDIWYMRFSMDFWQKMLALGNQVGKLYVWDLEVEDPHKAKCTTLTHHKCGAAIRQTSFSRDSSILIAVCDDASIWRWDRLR
Sequence (Q09028 2-425, chain 4 of 4, further chain): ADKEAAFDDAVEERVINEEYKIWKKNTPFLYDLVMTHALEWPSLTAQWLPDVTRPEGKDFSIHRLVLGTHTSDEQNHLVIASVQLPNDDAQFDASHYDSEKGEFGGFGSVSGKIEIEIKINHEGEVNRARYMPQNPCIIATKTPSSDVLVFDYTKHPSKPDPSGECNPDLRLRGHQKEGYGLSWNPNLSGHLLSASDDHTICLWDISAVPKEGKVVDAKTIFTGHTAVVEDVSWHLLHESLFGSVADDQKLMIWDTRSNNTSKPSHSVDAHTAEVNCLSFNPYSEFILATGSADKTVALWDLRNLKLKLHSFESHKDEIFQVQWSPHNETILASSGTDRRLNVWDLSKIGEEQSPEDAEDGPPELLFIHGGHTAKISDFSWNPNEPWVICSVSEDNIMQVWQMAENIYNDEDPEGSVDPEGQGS

Sequence of full length recombinant EZHIP WT, 6x-His-tagged (natural protein) (Q86X51 whole entry): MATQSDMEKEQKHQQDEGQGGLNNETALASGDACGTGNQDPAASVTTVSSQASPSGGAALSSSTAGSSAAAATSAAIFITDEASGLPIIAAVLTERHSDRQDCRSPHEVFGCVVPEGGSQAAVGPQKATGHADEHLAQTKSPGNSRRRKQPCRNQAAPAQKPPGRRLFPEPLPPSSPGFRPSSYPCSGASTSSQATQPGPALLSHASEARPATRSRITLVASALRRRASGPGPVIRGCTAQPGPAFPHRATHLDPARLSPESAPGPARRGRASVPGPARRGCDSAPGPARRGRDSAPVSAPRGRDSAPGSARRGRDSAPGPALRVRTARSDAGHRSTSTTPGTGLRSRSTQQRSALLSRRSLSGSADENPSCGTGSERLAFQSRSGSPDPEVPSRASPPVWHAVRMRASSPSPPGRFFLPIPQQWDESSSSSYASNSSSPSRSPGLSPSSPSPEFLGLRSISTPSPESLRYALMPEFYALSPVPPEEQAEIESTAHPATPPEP

IC50 of PRC2-catalyzed methylation of oligonucleosomes, in vitro methyltransferase assay, EZHIP titrated: 50 nM
Substance: full length recombinant EZHIP WT, 6x-His-tagged (natural protein)
